Experimental data reported in US9845340B2, “Peptides that specifically bind HGF receptor (cMet) and uses thereof” (Dyax Corp., priority 2003, dated 2017).

Key:
cMet-Fc fusion protein [1] = target: T1, cMet-Fc fusion protein (Homo sapiens, UniProt P08581); test: Protein phage ELISA: peptide-displaying phage binding to soluble cMet-Fc versus TRAIL-Fc; conditions: phage isolate; cMet-Fc vs. TRAIL-Fc
Method in brief: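 Phage displaying selected peptides were incubated 2 h at room temperature on wells coated with 0.5 μg/mL cMet-Fc, with TRAIL-Fc coating as the unrelated-Fc specificity control.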

[2] = target: T2, 3T3 cells that over-express human cMet (Homo sapiens, UniProt P08581); test: Whole cell ELISA of peptide-displaying phage; type: cell-based; conditions: phage isolate; 3T3 cells expressing human cMet vs. non-expressing 3T3 cells
T2 construct: expressed in transfected cells; host or cells: 3T3 cells
T2 sequence (P08581 25-1390): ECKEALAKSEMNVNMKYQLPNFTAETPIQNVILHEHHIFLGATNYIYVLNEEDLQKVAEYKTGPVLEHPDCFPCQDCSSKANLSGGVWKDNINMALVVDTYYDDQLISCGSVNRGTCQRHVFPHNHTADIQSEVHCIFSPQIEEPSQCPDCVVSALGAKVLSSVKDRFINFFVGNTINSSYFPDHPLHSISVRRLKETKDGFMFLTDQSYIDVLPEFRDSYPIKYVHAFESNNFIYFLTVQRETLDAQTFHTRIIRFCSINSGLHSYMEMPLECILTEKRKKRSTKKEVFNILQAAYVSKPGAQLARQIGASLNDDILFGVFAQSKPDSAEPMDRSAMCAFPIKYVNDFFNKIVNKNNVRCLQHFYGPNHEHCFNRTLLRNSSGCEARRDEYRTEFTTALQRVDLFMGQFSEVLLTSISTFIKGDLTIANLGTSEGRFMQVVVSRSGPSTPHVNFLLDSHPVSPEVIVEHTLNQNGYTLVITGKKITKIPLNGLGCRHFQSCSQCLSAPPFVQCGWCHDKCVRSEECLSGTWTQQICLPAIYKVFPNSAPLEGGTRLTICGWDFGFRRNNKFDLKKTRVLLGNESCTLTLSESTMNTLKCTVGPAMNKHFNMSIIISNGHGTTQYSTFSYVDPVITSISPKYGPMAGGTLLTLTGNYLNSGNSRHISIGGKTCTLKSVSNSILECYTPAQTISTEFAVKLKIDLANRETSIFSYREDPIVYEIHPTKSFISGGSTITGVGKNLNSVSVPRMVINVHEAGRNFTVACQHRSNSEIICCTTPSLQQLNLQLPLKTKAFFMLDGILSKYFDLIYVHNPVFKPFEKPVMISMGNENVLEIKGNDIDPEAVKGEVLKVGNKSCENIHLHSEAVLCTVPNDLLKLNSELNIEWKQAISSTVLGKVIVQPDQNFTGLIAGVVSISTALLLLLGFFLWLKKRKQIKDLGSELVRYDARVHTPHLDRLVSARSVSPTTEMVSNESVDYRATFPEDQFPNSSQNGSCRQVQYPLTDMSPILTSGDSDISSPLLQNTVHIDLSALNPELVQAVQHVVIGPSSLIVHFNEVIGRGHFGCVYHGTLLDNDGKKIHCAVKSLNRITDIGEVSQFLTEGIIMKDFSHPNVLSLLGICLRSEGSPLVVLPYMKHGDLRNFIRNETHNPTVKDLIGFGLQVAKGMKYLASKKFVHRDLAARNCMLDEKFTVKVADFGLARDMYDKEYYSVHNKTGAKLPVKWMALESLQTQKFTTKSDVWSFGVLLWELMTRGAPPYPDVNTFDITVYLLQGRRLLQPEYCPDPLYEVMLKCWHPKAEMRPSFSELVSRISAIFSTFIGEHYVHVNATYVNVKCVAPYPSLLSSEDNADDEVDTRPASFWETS
Method in brief: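 Phage displaying peptides, pre-blocked 1 h at 37 °C, incubated 1 h at RT on glutaraldehyde-fixed (0.1%, 12 min, 37 °C) cMet-overexpressing 3T3 cells (10^5 per well). Binding read out by HRP anti-M13 antibody after PBST washing.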

cMet-Fc fusion protein [3] = target: T1, cMet-Fc fusion protein; test: HGF competition protein ELISA; conditions: % of binding in the absence of HGF
Experimental: This competition ELISA identifies peptides that serve as “HGF antagonistic peptides”, peptides that block HGF-mediated signaling events (e.g., proliferation). These assays were conducted using the peptide-displaying phage discovered from the initial selection and screening campaigns using the first generation peptide libraries. Briefly, 96-well plates were coated overnight at 4 C with 0.5 μg/mL of cMet-Fc fusion protein or TRAIL-Fc fusion protein (background). The plates were blocked for 2 hours at 37 C with 3% BSA in PBST. The plates were washed with PBST, and 100 μL of HGF (either at 100 ng/mL or 500 ng/mL in PBST) was added to each well. The plates were incubated for 30 minutes at room temperature after which the plates were washed with PBST and 70 μL of HGF (143 ng/mL or 714 ng/mL) or 70 μL of PBST was added to the respective wells. This was followed by an addition of 30 μL of peptide-displaying phage overnight culture to each well. The plates were incubated for 2 hours at room temperature, washed with PBST and cMet-binding peptide-displaying phage was detected using an HRP-conjugated anti-M13 antibody.

SK-LMS-1 cells = test: Cellular proliferation assay (HGF-stimulated, BrdU incorporation); type: cell-based; conditions: peptide 10 μM, HGF 50 ng/mL or 100 ng/mL, FIG. 10
Experimental: Cellular proliferation assays were performed to identify cMet-binding peptides that antagonize HGF-stimulated proliferation. These in vitro studies utilized a leomyosarcoma cell line, SK-LMS-1, in which cells proliferate in response to HGF. SK-LMS-1 cells were seeded on 96-well plates at a density of 2000 cells/well. After a 24 hour incubation at 37 C, the cells were starved in culture media containing 0.1% BSA instead of 10% fetal bovine serum for 36 hours at 37 C. Fresh starvation media with or without a cMet-binding peptide (10 μM) was added to the respective wells and the cells were incubated for 2 hours at 37 C. […] HGF was then added at a concentration of either 50 ng/mL or 100 ng/mL and the cells were incubated for an additional 12 hours at 37 C. Proliferation was assessed by measuring the incorporation of BrdU (Calbiochem, San Diego, Calif.) as described by the manufacturer. Results are shown for SEQ ID NO:365 (FIG. 10).

[4] = target: T3, cMet-Fc fusion protein (or similar target) (Mus musculus, UniProt P16056); test: Fluorescence anisotropy / polarization direct binding, mouse cMet; set-up: key: NB = no binding; conditions: fluorescein-labeled peptide
T3 construct: Fc
T3 sequence (P16056 25-306 limits assumed): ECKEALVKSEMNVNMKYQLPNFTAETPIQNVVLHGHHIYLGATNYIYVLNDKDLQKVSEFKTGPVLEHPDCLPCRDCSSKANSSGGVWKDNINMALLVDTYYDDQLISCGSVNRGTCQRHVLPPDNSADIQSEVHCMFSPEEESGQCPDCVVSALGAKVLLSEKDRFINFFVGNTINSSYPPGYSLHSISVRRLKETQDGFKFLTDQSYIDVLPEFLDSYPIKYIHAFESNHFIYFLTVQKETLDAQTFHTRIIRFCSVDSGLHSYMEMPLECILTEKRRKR
T3 sequence (P16056 307-929 limits assumed): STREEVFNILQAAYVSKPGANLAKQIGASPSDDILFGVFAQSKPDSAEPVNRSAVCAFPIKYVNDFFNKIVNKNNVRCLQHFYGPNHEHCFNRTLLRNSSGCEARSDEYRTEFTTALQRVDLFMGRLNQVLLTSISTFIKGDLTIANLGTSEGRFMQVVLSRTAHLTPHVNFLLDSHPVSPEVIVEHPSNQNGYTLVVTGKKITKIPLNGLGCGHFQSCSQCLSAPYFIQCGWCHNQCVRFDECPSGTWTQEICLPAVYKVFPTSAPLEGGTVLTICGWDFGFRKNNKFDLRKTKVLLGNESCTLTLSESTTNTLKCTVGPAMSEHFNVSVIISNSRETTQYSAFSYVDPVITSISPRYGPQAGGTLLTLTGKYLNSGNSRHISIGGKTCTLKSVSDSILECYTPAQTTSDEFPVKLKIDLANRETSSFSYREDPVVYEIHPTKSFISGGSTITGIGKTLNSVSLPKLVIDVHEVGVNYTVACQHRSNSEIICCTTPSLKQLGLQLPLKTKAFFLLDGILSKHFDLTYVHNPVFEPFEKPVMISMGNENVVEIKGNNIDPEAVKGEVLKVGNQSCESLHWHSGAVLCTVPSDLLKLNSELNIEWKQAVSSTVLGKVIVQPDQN
Experimental: Fluorescence anisotropy measurements were performed in 384-well microplates in a volume of 10 μL in binding buffer (PBS, 0.01% Tween-20, pH 7.5) using a Tecan Polarion fluorescence polarization plate reader ([…]). The concentration of fluorescein-labeled peptide was held constant (20 nM) and the concentration of cMet-Fc fusion protein (or similar target) was varied. Binding mixtures were equilibrated for 10 minutes in the microplate at 30 C before measurement. The observed change in anisotropy was fit to the equation below via nonlinear regression to obtain the apparent KD. This equation (1) assumes that the synthetic peptide and cMet form a reversible complex in solution with 1:1 stoichiometry.
[formula] where robs is the observed anisotropy, rfree is the anisotropy of the free peptide, rbound is the anisotropy of the bound peptide, KD is the apparent dissociation constant, cMet is the total cMet concentration, and P is the total fluorescein-labeled peptide concentration. KD was calculated in a direct binding assay (KD,B) and therefore these values represent cMet binding to the fluorescein labeled peptide.

T1 sequence (P08581 25-307 limits assumed): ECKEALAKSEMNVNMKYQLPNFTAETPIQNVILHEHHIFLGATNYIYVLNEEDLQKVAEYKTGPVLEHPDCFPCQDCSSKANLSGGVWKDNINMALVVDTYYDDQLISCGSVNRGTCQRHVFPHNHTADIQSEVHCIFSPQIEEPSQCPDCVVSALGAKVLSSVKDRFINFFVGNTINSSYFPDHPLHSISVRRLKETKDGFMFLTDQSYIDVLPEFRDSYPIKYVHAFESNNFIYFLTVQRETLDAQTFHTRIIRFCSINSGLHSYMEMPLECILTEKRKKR
T1 sequence (P08581 with tags, fused parts or gaps limits assumed): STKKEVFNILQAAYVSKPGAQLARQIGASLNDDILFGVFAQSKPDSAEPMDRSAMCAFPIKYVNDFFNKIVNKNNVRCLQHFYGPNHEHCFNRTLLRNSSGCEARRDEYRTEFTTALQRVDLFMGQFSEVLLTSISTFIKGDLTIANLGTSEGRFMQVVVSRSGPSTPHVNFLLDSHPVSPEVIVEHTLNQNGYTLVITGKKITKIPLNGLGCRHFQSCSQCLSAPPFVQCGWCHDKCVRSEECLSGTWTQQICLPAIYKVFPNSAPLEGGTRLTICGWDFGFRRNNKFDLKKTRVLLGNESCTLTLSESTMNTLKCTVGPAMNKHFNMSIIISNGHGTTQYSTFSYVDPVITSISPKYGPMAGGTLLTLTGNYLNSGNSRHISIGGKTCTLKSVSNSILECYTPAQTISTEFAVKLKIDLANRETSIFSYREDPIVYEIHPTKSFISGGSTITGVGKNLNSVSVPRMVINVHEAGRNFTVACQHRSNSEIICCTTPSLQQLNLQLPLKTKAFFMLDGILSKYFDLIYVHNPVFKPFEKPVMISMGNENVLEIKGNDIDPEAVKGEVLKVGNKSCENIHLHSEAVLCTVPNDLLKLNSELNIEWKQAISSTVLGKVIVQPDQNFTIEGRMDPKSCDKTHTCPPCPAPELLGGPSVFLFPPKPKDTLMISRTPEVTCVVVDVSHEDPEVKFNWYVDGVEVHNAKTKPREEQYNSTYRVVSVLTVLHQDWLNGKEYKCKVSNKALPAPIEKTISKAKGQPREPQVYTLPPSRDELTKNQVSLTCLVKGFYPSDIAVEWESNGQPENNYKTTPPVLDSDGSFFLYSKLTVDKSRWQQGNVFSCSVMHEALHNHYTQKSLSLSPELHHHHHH

Row | Protein ELISA (cMet-Fc fusion protein [1]) | WC ELISA [2] | HGF 100 ng/mL (cMet-Fc fusion protein [3]) | HGF 500 ng/mL (cMet-Fc fusion protein [3]; HGF 500 ng/mL) | Kd (mouse) [4] | Compound | growth inhibitory properties (HGF-stimulated proliferation) (SK-LMS-1 cells)
1 | 14.3 fold over background | 1.43 fold over background | 61% | 79% | – | AGWYNCSGENFWNCKWIGT (Synthetically generated cMet-binding peptide sequence) [SEQ ID NO: 082] | –
2 | 3.0 fold over background | 1.27 fold over background | 9S% | – | – | GSILYCINRNDPQCPYTAP (Synthetically generated cMet-binding peptide sequence) [SEQ ID NO: 101] | –
3 | 26.3 fold over background | 1.33 fold over background | – | – | – | GSWRFCGGEYSFQVCQDVAP (Synthetically generated cMet-binding peptide sequence) [SEQ ID NO: 365] | growth inhibitory properties
4 | – | – | – | – | NB | CSCC[C@@H]1NC(=O)[C@@H](NC(=O)[C@H](CCSC)NC(=O)[C@H](CCC(=O)O)NC(=O)[C@@H]2CCCN2C(=O)[C@H](CO)NC(=O)CNC(C)=O)CSSC[C@@H](C(=O)N[C@@H](CC(N)=O)C(=O)N[C@@H](Cc2c[nH]cn2)C(=O)N[C@@H](Cc2c[nH]cn2)C(=O)N[C@@H](C)C(=O)N2CCC[C@H]2C(=O)NCC(=O)NCC(=O)NCC(=O)N[C@@H](CCCCNC(=O)c2ccc3c(c2)C(=O)OC32c3ccc(O)cc3Oc3cc(O)ccc32)C(N)=O)NC(=O)[C@@H]2CCCN2C(=O)[C@H](Cc2ccc(O)cc2)NC(=O)[C@H](CC(C)C)NC(=O)[C@H](Cc2ccccc2)NC(=O)[C@@H]2CCCN2C(=O)[C@H](Cc2ccccc2)NC(=O)[C@H](CCSC)NC1=O [SEQ ID NO: 369] | –
5 | 11.3 fold over background | 1.30 fold over background | – | – | NB | CC(=O)NCC(=O)N[C@@H](CC(=O)O)C(=O)N[C@@H](Cc1ccc(O)cc1)C(=O)N[C@@H](CO)C(=O)N[C@@H](CCC(=O)O)C(=O)N[C@H]1CSSC[C@@H](C(=O)N[C@@H](Cc2ccc(O)cc2)C(=O)N[C@@H](CC(=O)O)C(=O)N[C@@H](CCCNC(=N)N)C(=O)N[C@@H](CC(=O)O)C(=O)N2CCC[C@H]2C(=O)NCC(=O)NCC(=O)NCC(=O)N[C@@H](CCCCNC(=O)c2ccc3c(c2)C(=O)OC32c3ccc(O)cc3Oc3cc(O)ccc32)C(N)=O)NC(=O)[C@H](CCCCN)NC(=O)[C@H](C(C)C)NC(=O)[C@H](CCC(=O)O)NC(=O)[C@H](Cc2ccccc2)NC(=O)[C@H](CO)NC(=O)[C@H](CC(=O)O)NC(=O)[C@@H]2CCCN2C(=O)[C@H](CCC(=O)O)NC(=O)[C@H](Cc2ccccc2)NC(=O)[C@H](Cc2ccccc2)NC1=O [SEQ ID NO: 399] | –
6 | 13.3 fold over background | 1.87 fold over background | – | – | NB | CC[C@H](C)[C@@H]1NC(=O)[C@H](CCCNC(=N)N)NC(=O)[C@H](Cc2c[nH]c3ccccc23)NC(=O)[C@@H](NC(=O)[C@@H]2CCCN2C(=O)[C@H](Cc2ccccc2)NC(=O)[C@H](Cc2ccccc2)NC(=O)[C@H](CO)NC(=O)CNC(C)=O)CSSC[C@@H](C(=O)N[C@@H](Cc2c[nH]cn2)C(=O)N[C@@H](C)C(=O)N[C@@H](CC(N)=O)C(=O)N[C@@H](C)C(=O)N2CCC[C@H]2C(=O)NCC(=O)NCC(=O)NCC(=O)N[C@@H](CCCCNC(=O)c2ccc3c(c2)C(=O)OC32c3ccc(O)cc3Oc3cc(O)ccc32)C(N)=O)NC(=O)[C@H](Cc2ccc(O)cc2)NC(=O)CNC(=O)[C@H](Cc2ccccc2)NC(=O)[C@H](CCCNC(=N)N)NC(=O)[C@H](CC(=O)O)NC1=O [SEQ ID NO: 370] | –
